From patent publication US20090042248 come the findings set out here.

Series [1] deals with T1, C1-inhibitor, P05155.
T1 chain: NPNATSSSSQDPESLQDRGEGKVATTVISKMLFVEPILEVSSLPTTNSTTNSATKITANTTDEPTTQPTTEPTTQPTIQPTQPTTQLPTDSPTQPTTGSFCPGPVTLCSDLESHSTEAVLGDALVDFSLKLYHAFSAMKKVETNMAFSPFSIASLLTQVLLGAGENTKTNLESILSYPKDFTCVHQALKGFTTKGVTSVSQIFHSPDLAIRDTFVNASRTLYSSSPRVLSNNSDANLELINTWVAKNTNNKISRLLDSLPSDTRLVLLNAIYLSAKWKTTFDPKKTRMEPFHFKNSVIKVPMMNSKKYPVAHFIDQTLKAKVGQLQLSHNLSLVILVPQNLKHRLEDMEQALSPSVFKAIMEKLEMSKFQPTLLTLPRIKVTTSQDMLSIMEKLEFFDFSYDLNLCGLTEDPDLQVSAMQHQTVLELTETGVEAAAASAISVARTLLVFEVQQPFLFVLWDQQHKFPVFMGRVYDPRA
Put plainly: SDS-stable complex formation of 125I-labelled MASP fragments with C1-inhibitor.

Series [2] addresses T2, P1 Lys oligopeptide of the competing oligopeptide substrate library.
T2 chain: HAAPKSANIQIAI

Series [3] deals with 'live' C3 (C3 with an intact thiol ester bond), P01024.
'live' C3 (C3 with an intact thiol ester bond), P01024, sequence (P01024 whole entry, looked up): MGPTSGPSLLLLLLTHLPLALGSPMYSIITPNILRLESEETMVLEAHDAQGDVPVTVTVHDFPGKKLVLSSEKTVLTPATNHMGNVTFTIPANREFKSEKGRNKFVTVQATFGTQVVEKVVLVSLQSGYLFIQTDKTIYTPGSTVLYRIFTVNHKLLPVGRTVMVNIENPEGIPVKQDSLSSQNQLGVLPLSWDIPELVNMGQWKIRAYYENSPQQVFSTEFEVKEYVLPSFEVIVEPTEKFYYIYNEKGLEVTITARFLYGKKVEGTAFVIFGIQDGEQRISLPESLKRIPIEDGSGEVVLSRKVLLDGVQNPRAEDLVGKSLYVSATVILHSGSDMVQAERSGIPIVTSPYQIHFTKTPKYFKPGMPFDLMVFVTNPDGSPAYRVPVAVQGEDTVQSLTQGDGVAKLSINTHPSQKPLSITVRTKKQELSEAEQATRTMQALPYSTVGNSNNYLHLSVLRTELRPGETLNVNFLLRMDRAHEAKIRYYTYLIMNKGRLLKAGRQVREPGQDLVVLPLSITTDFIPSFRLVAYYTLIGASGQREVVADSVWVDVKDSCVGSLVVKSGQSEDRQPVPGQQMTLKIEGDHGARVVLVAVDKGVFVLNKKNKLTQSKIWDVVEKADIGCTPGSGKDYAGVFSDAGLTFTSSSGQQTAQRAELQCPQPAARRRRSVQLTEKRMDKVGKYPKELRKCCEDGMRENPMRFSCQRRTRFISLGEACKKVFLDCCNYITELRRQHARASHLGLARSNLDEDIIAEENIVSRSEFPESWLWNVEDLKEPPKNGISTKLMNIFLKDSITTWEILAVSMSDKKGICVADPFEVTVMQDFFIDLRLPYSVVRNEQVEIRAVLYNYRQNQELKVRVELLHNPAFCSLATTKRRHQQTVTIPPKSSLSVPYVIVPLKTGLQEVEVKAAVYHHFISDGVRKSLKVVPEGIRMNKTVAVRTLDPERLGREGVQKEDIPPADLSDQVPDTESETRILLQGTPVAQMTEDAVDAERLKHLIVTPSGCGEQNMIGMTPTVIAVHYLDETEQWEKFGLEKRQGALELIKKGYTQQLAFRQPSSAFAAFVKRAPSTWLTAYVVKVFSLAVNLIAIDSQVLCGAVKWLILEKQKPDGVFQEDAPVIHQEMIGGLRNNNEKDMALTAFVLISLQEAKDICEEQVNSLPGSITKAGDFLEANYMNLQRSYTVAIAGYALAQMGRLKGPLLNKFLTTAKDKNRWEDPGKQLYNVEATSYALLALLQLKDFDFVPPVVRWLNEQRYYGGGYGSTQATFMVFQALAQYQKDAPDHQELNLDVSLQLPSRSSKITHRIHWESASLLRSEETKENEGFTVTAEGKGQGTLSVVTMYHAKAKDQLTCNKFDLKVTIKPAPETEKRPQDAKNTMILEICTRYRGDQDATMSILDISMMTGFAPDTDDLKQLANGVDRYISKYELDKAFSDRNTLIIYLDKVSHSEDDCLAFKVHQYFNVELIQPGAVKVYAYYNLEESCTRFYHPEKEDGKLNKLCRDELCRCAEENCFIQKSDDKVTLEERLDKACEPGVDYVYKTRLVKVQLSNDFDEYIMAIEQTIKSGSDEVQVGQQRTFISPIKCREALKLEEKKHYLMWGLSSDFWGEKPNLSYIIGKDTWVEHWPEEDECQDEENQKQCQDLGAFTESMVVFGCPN
The target in series [4] is 'dead' C3(NH3), P01024.
'dead' C3(NH3), P01024, sequence (P01024 whole entry, looked up): as above
In series [5] the target is Human C4, P0C0L4.
Human C4, P0C0L4, sequence (P0C0L4 whole entry, looked up): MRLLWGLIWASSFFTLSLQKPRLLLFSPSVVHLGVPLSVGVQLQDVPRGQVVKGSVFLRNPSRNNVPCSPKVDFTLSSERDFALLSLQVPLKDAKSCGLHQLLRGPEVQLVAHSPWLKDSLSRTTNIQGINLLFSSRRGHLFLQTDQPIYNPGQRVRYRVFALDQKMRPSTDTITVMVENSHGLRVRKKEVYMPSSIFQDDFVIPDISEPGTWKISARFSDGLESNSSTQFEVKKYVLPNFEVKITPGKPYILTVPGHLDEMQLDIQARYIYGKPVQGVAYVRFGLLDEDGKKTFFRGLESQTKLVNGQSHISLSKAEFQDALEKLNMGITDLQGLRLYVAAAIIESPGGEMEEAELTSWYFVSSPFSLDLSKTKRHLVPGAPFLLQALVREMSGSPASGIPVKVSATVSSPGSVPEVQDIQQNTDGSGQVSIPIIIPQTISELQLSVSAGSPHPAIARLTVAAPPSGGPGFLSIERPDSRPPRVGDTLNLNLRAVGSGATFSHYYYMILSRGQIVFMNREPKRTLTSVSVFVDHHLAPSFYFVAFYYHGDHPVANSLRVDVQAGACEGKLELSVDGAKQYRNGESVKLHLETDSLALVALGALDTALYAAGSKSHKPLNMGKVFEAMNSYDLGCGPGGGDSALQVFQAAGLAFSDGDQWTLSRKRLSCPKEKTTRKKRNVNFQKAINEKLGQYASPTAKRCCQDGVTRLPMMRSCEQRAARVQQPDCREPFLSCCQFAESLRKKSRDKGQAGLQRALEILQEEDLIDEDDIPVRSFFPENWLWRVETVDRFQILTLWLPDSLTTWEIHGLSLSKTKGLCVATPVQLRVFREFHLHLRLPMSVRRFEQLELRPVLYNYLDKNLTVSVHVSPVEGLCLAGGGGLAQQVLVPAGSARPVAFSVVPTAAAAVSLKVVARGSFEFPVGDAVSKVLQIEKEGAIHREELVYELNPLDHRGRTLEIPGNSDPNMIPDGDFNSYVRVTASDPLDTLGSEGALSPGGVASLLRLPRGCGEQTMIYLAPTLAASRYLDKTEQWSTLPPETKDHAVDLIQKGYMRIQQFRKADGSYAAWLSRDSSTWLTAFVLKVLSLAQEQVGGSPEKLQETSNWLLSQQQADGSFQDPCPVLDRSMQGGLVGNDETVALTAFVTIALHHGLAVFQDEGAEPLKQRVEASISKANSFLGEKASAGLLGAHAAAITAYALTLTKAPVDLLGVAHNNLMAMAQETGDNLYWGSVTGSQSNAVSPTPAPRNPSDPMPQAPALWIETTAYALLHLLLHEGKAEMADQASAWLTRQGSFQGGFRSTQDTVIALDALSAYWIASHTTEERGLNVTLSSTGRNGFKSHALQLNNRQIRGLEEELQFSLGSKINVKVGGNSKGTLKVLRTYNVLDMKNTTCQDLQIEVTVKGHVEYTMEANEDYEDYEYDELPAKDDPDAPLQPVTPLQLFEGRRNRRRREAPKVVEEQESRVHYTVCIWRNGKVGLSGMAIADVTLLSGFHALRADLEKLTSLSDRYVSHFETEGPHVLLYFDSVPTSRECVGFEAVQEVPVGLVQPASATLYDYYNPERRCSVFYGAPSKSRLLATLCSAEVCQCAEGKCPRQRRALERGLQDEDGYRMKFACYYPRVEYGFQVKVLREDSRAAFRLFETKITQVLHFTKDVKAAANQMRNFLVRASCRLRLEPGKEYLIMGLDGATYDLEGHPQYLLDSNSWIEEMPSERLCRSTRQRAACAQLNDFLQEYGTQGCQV
Series [6] addresses T3, P1 Arg oligopeptide of the competing oligopeptide substrate library.
T3 chain: HAAPRSANIQIAI

Series [7] deals with T4, Human C2, P06681.
T4 chain: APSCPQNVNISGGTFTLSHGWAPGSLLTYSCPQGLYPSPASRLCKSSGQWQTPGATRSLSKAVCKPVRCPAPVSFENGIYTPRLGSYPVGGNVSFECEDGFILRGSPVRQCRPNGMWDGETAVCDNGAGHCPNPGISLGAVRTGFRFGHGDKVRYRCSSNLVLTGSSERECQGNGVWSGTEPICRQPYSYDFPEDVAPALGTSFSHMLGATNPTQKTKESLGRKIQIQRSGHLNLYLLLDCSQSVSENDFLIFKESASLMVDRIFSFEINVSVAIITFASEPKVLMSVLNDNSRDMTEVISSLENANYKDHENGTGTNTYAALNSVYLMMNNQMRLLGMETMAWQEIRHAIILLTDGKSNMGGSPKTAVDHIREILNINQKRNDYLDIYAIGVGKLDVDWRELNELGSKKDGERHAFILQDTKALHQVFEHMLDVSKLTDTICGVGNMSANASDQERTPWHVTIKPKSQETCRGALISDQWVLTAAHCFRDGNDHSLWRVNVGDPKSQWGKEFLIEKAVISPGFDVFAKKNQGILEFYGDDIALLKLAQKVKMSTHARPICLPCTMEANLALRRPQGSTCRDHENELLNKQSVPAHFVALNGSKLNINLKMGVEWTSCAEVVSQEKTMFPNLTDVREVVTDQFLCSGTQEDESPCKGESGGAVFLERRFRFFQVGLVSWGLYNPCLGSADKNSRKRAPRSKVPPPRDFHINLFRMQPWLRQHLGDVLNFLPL

Series [8] addresses T1, C1-inhibitor, P05155. The series is described as follows: SDS-stable complex formation of 125I-labelled MASP fragment with C1-inhibitor, reducing SDS-PAGE, autoradiography and densitometry.

B1: MASP-1 CCP1-CCP2-SP fragment (protein)
chain 1: ASMTGNECPELQPPVHGKIEPSQAKYFFKDQVLVSCDTGYKVLKDNVEMDTFQIECLKDGTWSNKIPTCKIVDCRAPGELEHGLITFSTRNNLTTYKSEIKYSCQEPYYKMLNNNTGIYTCSAQGVWMNKVLGRSLPTCLPVCGLPKFSRKLMAR
chain 2: IFNGRPAQKGTTPWIAMLSHLNGQPFCGGSLLGSSWIVTAAHCLHQSLDPEDPTLRDSDLLSPSDFKIILGKHWRLRSDENEQHLGVKHTTLHPQYDPNTFENDVALVELLESPVLNAFVMPICLPEGPQQEGAMVIVSGWGKQFLQRFPETLMEIEIPIVDHSTCQKAYAPLKKKVTRDMICAGEKEGGKDACAGDSGGPMVTLNRERGQWYLVGTVSWGDDCGKKDRYGVYSYIHHNKDWIQRVTGVRN
As to B1, in series [1], the “fold lower kobs than for the MASP-2 CCP1-CCP2-SP fragment” value is 5-fold less for the MASP-1 CCP1-CCP2-SP than for the MASP-2 CCP1-CCP2-SP fragment. Also, the “cleavage in the competing oligopeptide substrate library” value in series [2] is “both enzymes cleave oligopeptides that contain either Arg or Lys at their P1 positions”. Moreover, the kcat/KM, cleavage of live C3 in series [3] is 300 M⁻¹ s⁻¹. For the same protein, the kcat/KM, cleavage of C3(NH3) in series [4] came out at 6100 M⁻¹ s⁻¹. In series [5], the KM, C4 cleavage was 2.7 µM; the kcat, C4 cleavage turned out to be 0.002 s⁻¹; the kcat/KM, C4 cleavage came to 690 M⁻¹ s⁻¹. In addition, in series [6], the “cleavage in the competing oligopeptide substrate library” value is “both enzymes cleave oligopeptides that contain either Arg or Lys at their P1 positions”, the “digestion of the P1 Arg oligopeptide at 15 min” value is recorded as “at 15 min MASP-1 showed almost 90% digestion” and the “efficiency of digestion against the MASP-2 CCP1-CCP2-SP fragment” value is “the MASP-1 CCP1-CCP2-SP fragment digests the P1 Arg peptide 4-5 fold more efficiently than the corresponding fragment of MASP-2”. Besides, in series [7], the KM, C2 cleavage is 4.8 µM; the kcat, C2 cleavage stood at 0.1 s⁻¹; the kcat/KM, C2 cleavage came to 30000 M⁻¹ s⁻¹. This protein came in with a kobs (pseudo-first order rate of reaction at [C1-inh] = 350 nM) in series [8] of 0.0014 s⁻¹.
